# Measured values reported in the supplement of paper PMC9732359.
# ± gives the uncertainty stated by the source.
# Assay: protein stability index of a GFP-peptide fusion (yeast GPS) (PSI 1-4); higher = more stable; sorted into four equal gates, so the index is relative within each strain
# How it was run: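 The protein stability index combines read frequencies across sorting gates, each weighted by its gate number and then summed. To obtain those frequencies, a pooled yeast library of GFP fusions to tiled 17-residue yeast protein peptides, on a plasmid also expressing Cherry, was grown to mid-log phase in leucine-free medium. The cells were sorted into four equal gates by GFP/Cherry ratio before plasmid amplification by PCR and Illumina sequencing.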
sequence,measurement,setting,value
ANLPWLGKAQNWAKFTA [RPN2],protein stability index,doa10∆,3.34 ± 0.085
same,protein stability index,pdr5∆,3.39 ± 0.091
same,protein stability index,san1∆,3.11 ± 0.087
same,protein stability index,ubr1∆,3.52 ± 0.082
ARERKTATYNDNMSEEQ [SNF2],protein stability index,doa10∆,3.13 ± 0.11
same,protein stability index,pdr5∆,2.91 ± 0.11
same,protein stability index,san1∆,3.46 ± 0.11
same,protein stability index,ubr1∆,3.22 ± 0.085
AENMLEELRGQQTEHET [SMC4],protein stability index,doa10∆,3.02 ± 0.13
same,protein stability index,pdr5∆,2.97 ± 0.2
same,protein stability index,san1∆,3.32 ± 0.069
same,protein stability index,ubr1∆,3.4 ± 0.1
FSFGAATPSAKEASQED [YLR335W/NUP2],protein stability index,doa10∆,3.29 ± 0.062
same,protein stability index,pdr5∆,3.25 ± 0.074
same,protein stability index,san1∆,3.12 ± 0.055
same,protein stability index,ubr1∆,3.16 ± 0.087
LENQKDLVIVDENELKK [MTW1],protein stability index,doa10∆,3.65 ± 0.23
AYHQKYVDEQSKNELKK [RPS16A],protein stability index,doa10∆,2.5 ± 0.093
same,protein stability index,pdr5∆,2.02 ± 0.094
same,protein stability index,san1∆,2.02 ± 0.13
same,protein stability index,ubr1∆,2.94 ± 0.12
RPNGRKDHDLKIPLPEV [POP1],protein stability index,doa10∆,3.06 ± 0.055
same,protein stability index,pdr5∆,3.18 ± 0.058
same,protein stability index,san1∆,2.99 ± 0.073
same,protein stability index,ubr1∆,3.15 ± 0.065
MKPKAEKESDDGLLEYL [SMC4],protein stability index,doa10∆,3.58 ± 0.17
same,protein stability index,pdr5∆,3.37 ± 0.16
same,protein stability index,san1∆,3.31 ± 0.18
LQQELATTQDQVASIIE [NUT2],protein stability index,doa10∆,2.77 ± 0.059
same,protein stability index,pdr5∆,2.95 ± 0.043
same,protein stability index,san1∆,3.23 ± 0.053
same,protein stability index,ubr1∆,2.98 ± 0.037
AKIYPGRGTLFVRGDSK [RPL24A],protein stability index,doa10∆,1.1 ± 0.075
same,protein stability index,pdr5∆,1.77 ± 0.12
same,protein stability index,san1∆,1.97 ± 0.15
same,protein stability index,ubr1∆,2.04 ± 0.085
TRKGYIPSSKYAYMMNS [YLR018C/POM34],protein stability index,doa10∆,3.08 ± 0.11
same,protein stability index,pdr5∆,2.73 ± 0.12
same,protein stability index,san1∆,2.98 ± 0.21
same,protein stability index,ubr1∆,2.65 ± 0.14
GIGALFTQQELQKQMGI [RPC34],protein stability index,doa10∆,2.93 ± 0.11
same,protein stability index,pdr5∆,3.39 ± 0.095
same,protein stability index,san1∆,3.29 ± 0.085
same,protein stability index,ubr1∆,2.69 ± 0.11
GENIDADNDGPRINNIS [SNF2],protein stability index,doa10∆,3.44 ± 0.09
same,protein stability index,pdr5∆,3.53 ± 0.11
same,protein stability index,san1∆,3.28 ± 0.065
same,protein stability index,ubr1∆,3.02 ± 0.09
DFILSLLHHVSELDSND [YJL039C/NUP192],protein stability index,doa10∆,1.93 ± 0.071
same,protein stability index,pdr5∆,1.88 ± 0.064
same,protein stability index,san1∆,1.42 ± 0.11
same,protein stability index,ubr1∆,2.4 ± 0.054
DSTVVYPLPKFPTTSHE [MED8],protein stability index,doa10∆,2.75 ± 0.048
same,protein stability index,pdr5∆,3.06 ± 0.051
same,protein stability index,san1∆,2.92 ± 0.046
same,protein stability index,ubr1∆,3.02 ± 0.054
QAQAQAHAQHQPSQQPQ [GAL11],protein stability index,doa10∆,2.967 ± 0.022
same,protein stability index,pdr5∆,2.972 ± 0.019
same,protein stability index,san1∆,2.974 ± 0.022
same,protein stability index,ubr1∆,3.028 ± 0.018
RNETSVDEEDENGTHND [YCG1],protein stability index,doa10∆,3.08 ± 0.26
TMTMDVFNDAHVLNKVT [RPN1],protein stability index,doa10∆,2.26 ± 0.065
same,protein stability index,pdr5∆,2.25 ± 0.053
same,protein stability index,san1∆,2.4 ± 0.073
same,protein stability index,ubr1∆,2.25 ± 0.045
SQNDGFVIIRGSQILSG [RPO31],protein stability index,pdr5∆,3.13 ± 0.17
same,protein stability index,san1∆,2.86 ± 0.16
same,protein stability index,ubr1∆,2.61 ± 0.29
NGEEIVGFWKDDGDDED [MTR3],protein stability index,doa10∆,2.52 ± 0.11
same,protein stability index,pdr5∆,2.66 ± 0.074
same,protein stability index,san1∆,2.89 ± 0.091
same,protein stability index,ubr1∆,3.45 ± 0.087
SPQQFLRAHTDDSRNPD [PRE2],protein stability index,doa10∆,2.93 ± 0.092
same,protein stability index,pdr5∆,3.03 ± 0.069
same,protein stability index,san1∆,2.7 ± 0.079
same,protein stability index,ubr1∆,2.88 ± 0.079
LRKIQALRDVKNNNNAN [GAL11],protein stability index,doa10∆,3.05 ± 0.077
same,protein stability index,pdr5∆,2.87 ± 0.097
same,protein stability index,san1∆,3.15 ± 0.1
same,protein stability index,ubr1∆,3.11 ± 0.071
TDIEEGMRVGVDRSKYN [RPT1],protein stability index,doa10∆,3.13 ± 0.14
same,protein stability index,pdr5∆,3.34 ± 0.27
same,protein stability index,san1∆,3.07 ± 0.1
same,protein stability index,ubr1∆,3.13 ± 0.15
LLGPTLEDHTPPEDKPN [QCR10],protein stability index,doa10∆,2.5 ± 0.057
same,protein stability index,pdr5∆,2.81 ± 0.064
same,protein stability index,san1∆,2.94 ± 0.082
same,protein stability index,ubr1∆,2.94 ± 0.033
KKDIKIGTNDLFQVESA [SIR4],protein stability index,doa10∆,2.62 ± 0.082
same,protein stability index,pdr5∆,3.22 ± 0.066
same,protein stability index,san1∆,2.88 ± 0.07
same,protein stability index,ubr1∆,2.33 ± 0.054
RRGYQVYREVCAACHSL [CYT1],protein stability index,doa10∆,2.22 ± 0.073
same,protein stability index,pdr5∆,1.94 ± 0.059
same,protein stability index,san1∆,1.47 ± 0.085
same,protein stability index,ubr1∆,1.59 ± 0.039
GIDQYSFNVKENQPFHG [AAR2],protein stability index,doa10∆,2.65 ± 0.058
same,protein stability index,pdr5∆,2.88 ± 0.058
same,protein stability index,san1∆,2.82 ± 0.048
same,protein stability index,ubr1∆,2.9 ± 0.051
